The results in this text go back to patent publication US20190177411.

Data set [1] deals with Flag-tagged wild type (WT) PDK1 (not specifically T346-phosphorylated: from normoxic PC3 cells, or dephosphorylated before the kinase assay).
The target of data set [2] is purified recombinant His-tagged PDK2 (Abcam), Q15119.
In data set [3] the target is purified recombinant His-tagged PDK4 (Abcam), Q16654.
Data set [4] concerns the target purified recombinant His-tagged PDK1 (Abcam).
The target of data set [5] is Flag-tagged T346A PDK1 mutant.
Data set [6] concerns the target purified recombinant His-tagged PDK3 (Abcam), Q15120.

Chain of purified recombinant His-tagged PDK1 (Abcam) (chain, as listed by the source): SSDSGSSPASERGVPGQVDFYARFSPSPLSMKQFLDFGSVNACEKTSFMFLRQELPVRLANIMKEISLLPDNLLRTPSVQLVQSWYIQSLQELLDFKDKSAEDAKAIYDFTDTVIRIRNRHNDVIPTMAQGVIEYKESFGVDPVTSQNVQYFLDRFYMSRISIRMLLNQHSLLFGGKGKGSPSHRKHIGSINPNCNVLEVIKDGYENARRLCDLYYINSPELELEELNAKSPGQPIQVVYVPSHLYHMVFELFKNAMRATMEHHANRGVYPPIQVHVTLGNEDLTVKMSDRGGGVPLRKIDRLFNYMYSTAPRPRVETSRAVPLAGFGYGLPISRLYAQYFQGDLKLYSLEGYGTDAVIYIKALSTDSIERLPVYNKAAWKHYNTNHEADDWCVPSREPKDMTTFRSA
Chain of purified recombinant His-tagged PDK4 (Abcam), Q16654 (Q16654 10-411): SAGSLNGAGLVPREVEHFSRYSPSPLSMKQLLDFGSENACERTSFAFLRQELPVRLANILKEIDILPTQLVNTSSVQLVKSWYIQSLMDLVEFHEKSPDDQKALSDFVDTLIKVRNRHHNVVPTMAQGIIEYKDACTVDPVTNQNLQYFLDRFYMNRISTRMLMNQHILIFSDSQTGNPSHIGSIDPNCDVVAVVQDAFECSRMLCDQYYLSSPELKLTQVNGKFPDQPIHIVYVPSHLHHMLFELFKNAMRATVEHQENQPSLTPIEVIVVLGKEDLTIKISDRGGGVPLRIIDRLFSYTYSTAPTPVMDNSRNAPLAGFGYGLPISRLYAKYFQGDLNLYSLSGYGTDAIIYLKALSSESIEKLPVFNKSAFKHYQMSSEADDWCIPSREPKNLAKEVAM
Chain of Flag-tagged T346A PDK1 mutant (chain, as listed by the source T346A): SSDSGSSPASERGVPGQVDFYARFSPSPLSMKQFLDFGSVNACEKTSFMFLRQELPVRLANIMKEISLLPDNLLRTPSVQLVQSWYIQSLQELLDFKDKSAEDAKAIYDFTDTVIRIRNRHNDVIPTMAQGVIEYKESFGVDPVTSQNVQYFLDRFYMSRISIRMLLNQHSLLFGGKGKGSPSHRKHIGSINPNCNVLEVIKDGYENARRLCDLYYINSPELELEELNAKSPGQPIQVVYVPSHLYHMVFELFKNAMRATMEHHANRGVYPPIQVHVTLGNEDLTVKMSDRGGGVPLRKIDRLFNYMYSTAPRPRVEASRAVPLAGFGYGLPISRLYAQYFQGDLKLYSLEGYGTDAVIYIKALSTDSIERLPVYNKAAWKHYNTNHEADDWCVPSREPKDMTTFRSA
Chain of purified recombinant His-tagged PDK3 (Abcam), Q15120 (Q15120 whole entry, looked up): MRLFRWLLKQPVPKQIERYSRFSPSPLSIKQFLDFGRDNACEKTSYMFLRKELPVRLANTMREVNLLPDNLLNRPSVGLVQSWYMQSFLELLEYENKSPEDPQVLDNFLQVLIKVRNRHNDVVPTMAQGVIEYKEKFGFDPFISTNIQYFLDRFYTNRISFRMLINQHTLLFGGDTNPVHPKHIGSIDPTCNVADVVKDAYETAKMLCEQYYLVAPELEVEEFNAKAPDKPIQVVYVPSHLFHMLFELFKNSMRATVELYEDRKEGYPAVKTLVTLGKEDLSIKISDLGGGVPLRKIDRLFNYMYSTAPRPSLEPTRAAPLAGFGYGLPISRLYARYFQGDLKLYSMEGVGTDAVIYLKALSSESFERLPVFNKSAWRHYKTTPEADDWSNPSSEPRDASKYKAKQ
Chain of Flag-tagged wild type (WT) PDK1 (not specifically T346-phosphorylated: from normoxic PC3 cells, or dephosphorylated before the kinase assay) (chain, as listed by the source): as the sequence (chain, as listed by the source) above

B1: kinase active Akt2 (SignalChem) (protein)
chain: MNEVSVIKEGWLHKRGEYIKTWRPRYFLLKSDGSFIGYKERPEAPDQTLPPLNNFSVAECQLMKTERPRPNTFVIRCLQWTTVIERTFHVDSPDEREEWMRAIQMVANSLKQRAPGEDPMDYKCGSPSDSSTTEEMEVAVSKARAKVTMNDFDYLKLLGKGTFGKVILVREKATGRYYAMKILRKEVIIAKDEVAHTVTESRVLQNTRHPFLTALKYAFQTHDRLCFVMEYANGGELFFHLSRERVFTEERARFYGAEIVSALEYLHSRDVVYRDIKLENLMLDKDGHIKITDFGLCKEGISDGATMKTFCGTPEYLAPEVLEDNDYGRAVDWWGLGVVMYEMMCGRLPFYNQDHERLFELILMEEIRFPRTLSPEAKSLLAGLLKKDPKQRLGGGPSDAKEVMEHRFFLSINWQDVVQKKLLPPFKPQVTSEVDTRYFDDEFTAQSITITPPDRYDSLGLLELDQRTHFPQFSYSASIRE
As for B1, the “phosphorylation of Flag immune complexes in a kinase assay, Western blotting with Akt cons Ab” value was “active Akt2 phosphorylated wild type (WT) PDK1” in data set [1] and “but not a phosphorylation-defective Thr346→Ala (T346A) PDK1 mutant” in data set [5]. Moreover, the “phosphorylation in a kinase assay, Western blotting with Akt cons Ab” value is recorded as “related PDK2, PDK3 or PDK4 isoforms were unreactive” in data set [2]; “related PDK2, PDK3 or PDK4 isoforms were unreactive” in data set [3]; “active Akt1 or Akt2 readily phosphorylated PDK1” in data set [4]; “related PDK2, PDK3 or PDK4 isoforms were unreactive” in data set [6]. For the same protein, the “phosphorylation site by LC-MS/MS of chymotrypsin digests after a kinase assay” value in data set [4] is given as “Thr346 (T346) was identified ... as the sole phospho-amino acid modified by Akt1 or Akt2, compared to control”.
